Source: US8771694 (IMMUNOMEDICS, dated 2014)
Numbering of substitutions follows the chain as printed. Blank lines part the entries; values can stand above or below the binder they belong to.

Molecular target: T1, CD22 (LL2 antigen on the surface of Raji cells) (UniProt P20273 20-847, limits assumed)
T1 construct: whole, on cells; All assays used whole Raji cells; also called Raji cell surface antigen; B-lymphoma cells
T1 sequence (looked up): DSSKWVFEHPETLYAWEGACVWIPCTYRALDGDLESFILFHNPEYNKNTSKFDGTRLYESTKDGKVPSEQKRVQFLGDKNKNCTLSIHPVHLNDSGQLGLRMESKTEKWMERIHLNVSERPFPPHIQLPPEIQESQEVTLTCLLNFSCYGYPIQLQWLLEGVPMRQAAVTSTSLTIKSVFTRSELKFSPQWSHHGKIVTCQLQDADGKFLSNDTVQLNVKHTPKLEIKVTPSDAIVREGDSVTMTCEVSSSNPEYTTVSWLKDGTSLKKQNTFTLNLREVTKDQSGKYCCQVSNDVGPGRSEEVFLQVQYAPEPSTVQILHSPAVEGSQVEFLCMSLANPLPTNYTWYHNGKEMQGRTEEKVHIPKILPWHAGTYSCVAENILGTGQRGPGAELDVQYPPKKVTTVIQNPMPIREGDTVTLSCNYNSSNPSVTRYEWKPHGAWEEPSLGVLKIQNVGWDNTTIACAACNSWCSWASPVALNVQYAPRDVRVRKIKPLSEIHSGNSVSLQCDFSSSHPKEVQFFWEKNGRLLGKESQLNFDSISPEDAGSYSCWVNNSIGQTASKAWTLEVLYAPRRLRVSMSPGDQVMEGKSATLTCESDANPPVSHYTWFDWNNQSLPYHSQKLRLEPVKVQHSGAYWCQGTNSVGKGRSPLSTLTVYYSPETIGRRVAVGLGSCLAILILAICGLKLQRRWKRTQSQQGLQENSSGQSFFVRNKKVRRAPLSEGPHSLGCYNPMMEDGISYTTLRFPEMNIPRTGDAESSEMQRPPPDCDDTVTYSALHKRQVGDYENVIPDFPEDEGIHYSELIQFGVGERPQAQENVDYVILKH
Assay: competition flow cytometry on Raji cells, competitor mLL2 F(ab')2
Method: The Raji cell surface antigen binding affinities of mix-and-match and fully humanized antibodies can be compared to that of cLL2 using various concentrations of mLL2 F(ab')_2 fragments devoid of the Fc portion as competitors, as evaluated by flow cytometry assay. Residual surface-bound LL2 antibodies carrying the human Fc portions (cLL2 and mix-and-match LL2) can be detected by a FITC-labeled anti-human Fc specific antibody in a flow cytometry assay.
Briefly, 1 µg of cLL2, mix-and-match LL2, hLL2-1 or hLL2-2 antibodies were incubated with […] Raji cells in the presence of varying concentrations of mLL2 F(ab')_2 fragments (as competitor) in a final volume of 100 µl of PBS buffer supplemented with 1% FCS and 0.01% sodium azide. The mixture was incubated for 30 minutes at 4° C., and washed three times with PBS to remove unbound antibodies. By taking advantage of the presence of human Fc portions in the antibodies, the binding levels of the antibodies were assessed by adding a 20×diluted FITC-labeled goat anti-human IgG1, Fc fragment-specific antibodies (Jackson ImmunoResearch, West Grove, Pa.). The cells were washed three times with PBS, and fluorescence intensities measured by a FACSCAN fluorescence activated cell sorter (Becton-Dickinson, Bedford, Mass.).

binding result: binds
B1: humanized LL2 version 1 (antibody, human IgG1, V domains shown)
VH: QVQLQQSGAEVKKPGSSVKVSCKASGYTFTSYWLHWVRQAPGQGLEWIGYINPRNDYTEYNQNFKDKATITADESTNTAYMELSSLRSEDTAFYFCARRDITTFYWGQGTTVTVSS
VL: DIQLTQSPSSLSASVGDRVTMSCKSSQSVLYSANHKNYLAWYQQKPGKAPKLLIYWASTRESGVPSRFSGSGSGTDFTFTISSLQPEDIATYYCHQYLSSWTFGGGTKVQIKR
notes: VH has Q at Kabat position 5; also called hLL2-1; hLL2 with seven murine FR residues in the VH domain

binding result: binds
B2: humanized LL2 version 2 (antibody, human IgG1, V domains shown)
VH: B1 VH with Q5V
VL: B1 VL
notes: VH has V at Kabat position 5; also called hLL2-2; hLL2
